We go through 1 substance from US20030152975A1.

For the assay, the target named is INF1 expressed in planta (FMV 35S promoter, PR1a signal peptide - INF1) (Phytophthora infestans (US-8 genotype)). Description: cell-based or functional assay.

As for “Nhr1 expressed from the cosmid Nhr1 clone (tobacco genomic DNA in binary cosmid 04541)”, the necrosis percentage (average of 31 leaves), 78 hai is 11%; the necrosis percentage (average of 31 leaves), 94 hai turned out to be 19.8%; the necrosis percentage (average of 31 leaves), 102 hai was 26%; the necrosis percentage (average of 31 leaves), 120 hai was determined as 28.9%. Further, the necrosis percentage (average of 31 leaves), 140 hai came to 31%.
